Assay results as given in patent publication US20250320302A1 (EVOTEC INTERNATIONAL, published 2025).
Numbering of substitutions follows the chain as printed. Where two headings read alike, the source gives them in different places.

T1: human type I IFN receptor on HEK-Blue IFN-α/β cells (human, UniProt P17181 28-557; P48551 27-515)
T1 sequence (looked up) 1: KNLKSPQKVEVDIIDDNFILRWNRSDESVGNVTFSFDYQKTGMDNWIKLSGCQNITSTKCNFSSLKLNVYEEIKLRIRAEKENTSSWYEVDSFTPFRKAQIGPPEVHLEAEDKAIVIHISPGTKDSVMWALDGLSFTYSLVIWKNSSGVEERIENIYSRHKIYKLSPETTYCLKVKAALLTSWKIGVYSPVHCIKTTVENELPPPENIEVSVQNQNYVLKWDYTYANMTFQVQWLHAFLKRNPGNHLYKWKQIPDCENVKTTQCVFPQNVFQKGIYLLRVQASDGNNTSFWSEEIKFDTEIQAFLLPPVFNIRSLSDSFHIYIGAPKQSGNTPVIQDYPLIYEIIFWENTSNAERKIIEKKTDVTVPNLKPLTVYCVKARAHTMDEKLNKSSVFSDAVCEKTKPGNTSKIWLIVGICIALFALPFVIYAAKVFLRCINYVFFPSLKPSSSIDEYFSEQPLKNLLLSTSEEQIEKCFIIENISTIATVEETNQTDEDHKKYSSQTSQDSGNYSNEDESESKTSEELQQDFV
T1 sequence (looked up) 2: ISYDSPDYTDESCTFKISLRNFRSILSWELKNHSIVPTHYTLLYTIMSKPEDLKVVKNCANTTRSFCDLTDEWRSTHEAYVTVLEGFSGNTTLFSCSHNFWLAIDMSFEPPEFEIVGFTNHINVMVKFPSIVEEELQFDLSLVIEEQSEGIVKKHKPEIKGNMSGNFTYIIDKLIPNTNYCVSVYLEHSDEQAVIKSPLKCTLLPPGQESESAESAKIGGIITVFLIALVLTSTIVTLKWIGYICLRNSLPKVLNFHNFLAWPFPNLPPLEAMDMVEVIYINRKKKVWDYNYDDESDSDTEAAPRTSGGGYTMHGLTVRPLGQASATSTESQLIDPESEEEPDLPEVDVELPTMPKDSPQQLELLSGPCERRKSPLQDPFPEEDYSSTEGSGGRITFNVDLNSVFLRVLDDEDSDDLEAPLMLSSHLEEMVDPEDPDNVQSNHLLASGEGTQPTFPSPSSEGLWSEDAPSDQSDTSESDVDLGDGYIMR

B1: IFA8 (antibody, human IgG2, kappa)
heavy: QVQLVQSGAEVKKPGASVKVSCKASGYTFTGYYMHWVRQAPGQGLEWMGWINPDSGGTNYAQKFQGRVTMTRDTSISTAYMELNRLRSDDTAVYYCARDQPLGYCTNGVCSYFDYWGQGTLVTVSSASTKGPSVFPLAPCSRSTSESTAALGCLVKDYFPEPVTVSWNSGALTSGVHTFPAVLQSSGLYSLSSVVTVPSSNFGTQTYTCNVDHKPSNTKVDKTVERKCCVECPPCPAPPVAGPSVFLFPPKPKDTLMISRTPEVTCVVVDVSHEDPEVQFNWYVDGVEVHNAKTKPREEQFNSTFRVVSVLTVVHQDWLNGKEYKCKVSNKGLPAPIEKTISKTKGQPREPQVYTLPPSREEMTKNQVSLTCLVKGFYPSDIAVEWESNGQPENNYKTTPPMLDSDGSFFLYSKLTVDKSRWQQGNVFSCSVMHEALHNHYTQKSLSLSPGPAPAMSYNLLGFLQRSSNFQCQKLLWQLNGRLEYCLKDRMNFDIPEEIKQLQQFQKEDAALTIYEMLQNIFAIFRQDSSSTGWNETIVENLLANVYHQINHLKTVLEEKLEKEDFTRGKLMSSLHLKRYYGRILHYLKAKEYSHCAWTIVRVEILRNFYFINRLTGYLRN
light: DIQMTQSPSSVSASVGDRVTITCRASQGIYSWLAWYQQKPGKAPNLLIYTASTLQSGVPSRFSGSGSGTDFTLTISSLQPEDFATYYCQQANIFPLTFGGGTKVEIKRTVAAPSVFIFPPSDEQLKSGTASVVCLLNNFYPREAKVQWKVDNALQSGNSQESVTEQDSKDSTYSLSSTLTLSKADYEKHKVYACEVTHQGLSSPVTKSFNRGEC
B2: IFA49 (antibody, human IgG2, kappa)
heavy: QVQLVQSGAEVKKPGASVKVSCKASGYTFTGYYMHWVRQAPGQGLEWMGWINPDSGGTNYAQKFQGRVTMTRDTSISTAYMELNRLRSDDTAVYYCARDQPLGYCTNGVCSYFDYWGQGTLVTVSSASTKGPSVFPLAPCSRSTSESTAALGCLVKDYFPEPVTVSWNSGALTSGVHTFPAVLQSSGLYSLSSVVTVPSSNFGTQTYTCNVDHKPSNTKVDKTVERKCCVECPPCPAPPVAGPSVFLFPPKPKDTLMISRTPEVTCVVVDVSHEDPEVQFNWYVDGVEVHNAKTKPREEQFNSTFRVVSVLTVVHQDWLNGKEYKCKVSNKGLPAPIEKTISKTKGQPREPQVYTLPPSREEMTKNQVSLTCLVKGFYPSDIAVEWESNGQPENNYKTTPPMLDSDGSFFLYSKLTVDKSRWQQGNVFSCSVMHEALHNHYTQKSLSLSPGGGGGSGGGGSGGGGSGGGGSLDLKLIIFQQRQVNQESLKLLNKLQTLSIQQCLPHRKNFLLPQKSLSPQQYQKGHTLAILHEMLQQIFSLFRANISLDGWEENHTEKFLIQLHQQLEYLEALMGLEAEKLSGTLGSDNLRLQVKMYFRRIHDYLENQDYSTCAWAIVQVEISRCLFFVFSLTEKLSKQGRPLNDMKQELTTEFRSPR
light: B1 light
B3: IFA9 (antibody, human IgG2, kappa)
heavy: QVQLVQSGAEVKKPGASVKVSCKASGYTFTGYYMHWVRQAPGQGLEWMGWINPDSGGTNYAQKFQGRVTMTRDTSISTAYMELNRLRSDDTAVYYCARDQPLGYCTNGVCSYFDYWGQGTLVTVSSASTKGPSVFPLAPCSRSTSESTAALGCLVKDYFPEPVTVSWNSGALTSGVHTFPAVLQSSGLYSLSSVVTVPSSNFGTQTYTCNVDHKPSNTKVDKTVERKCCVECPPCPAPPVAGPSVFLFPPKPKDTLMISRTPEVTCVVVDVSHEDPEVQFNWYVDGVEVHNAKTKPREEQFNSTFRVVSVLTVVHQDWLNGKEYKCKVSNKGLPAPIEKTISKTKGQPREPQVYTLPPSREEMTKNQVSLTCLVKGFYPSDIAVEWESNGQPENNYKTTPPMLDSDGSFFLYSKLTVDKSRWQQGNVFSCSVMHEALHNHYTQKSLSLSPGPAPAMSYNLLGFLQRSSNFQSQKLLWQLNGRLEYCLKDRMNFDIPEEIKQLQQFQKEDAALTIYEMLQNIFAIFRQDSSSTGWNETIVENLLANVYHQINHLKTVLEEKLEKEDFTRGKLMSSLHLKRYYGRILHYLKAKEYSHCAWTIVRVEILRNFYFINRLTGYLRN
light: B1 light
B4: CP870,893 (antibody, human IgG2, kappa)
heavy: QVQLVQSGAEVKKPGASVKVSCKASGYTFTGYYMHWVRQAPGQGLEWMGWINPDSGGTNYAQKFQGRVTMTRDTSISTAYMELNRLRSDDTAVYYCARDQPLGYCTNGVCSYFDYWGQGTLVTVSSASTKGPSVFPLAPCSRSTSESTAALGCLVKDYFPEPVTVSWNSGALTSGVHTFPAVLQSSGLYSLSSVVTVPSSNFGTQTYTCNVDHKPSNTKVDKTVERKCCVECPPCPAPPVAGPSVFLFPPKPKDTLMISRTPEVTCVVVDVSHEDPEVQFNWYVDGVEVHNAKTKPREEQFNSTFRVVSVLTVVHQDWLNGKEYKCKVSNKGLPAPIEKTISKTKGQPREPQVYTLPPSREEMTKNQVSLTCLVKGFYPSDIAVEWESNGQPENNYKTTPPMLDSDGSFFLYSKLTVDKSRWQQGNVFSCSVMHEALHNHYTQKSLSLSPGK
light: B1 light
B5: IFA44 (antibody, human IgG2, kappa)
light: DIQMTQSPSSVSASVGDRVTITCRASQGIYSWLAWYQQKPGKAPNLLIYTASTLQSGVPSRFSGSGSGTDFTLTISSLQPEDFATYYCQQANIFPLTFGGGTKVEIKRTVAAPSVFIFPPSDEQLKSGTASVVCLLNNFYPREAKVQWKVDNALQSGNSQESVTEQDSKDSTYSLSSTLTLSKADYEKHKVYACEVTHQGLSSPVTKSFNRGECGGGGSGGGGSGGGGSGGGGSVPVARLHGALPDARGCHIAQFKSLSPQELQAFKRAKDALEESLLLKDCRCHSRLFPRTWDLRQLQVRERPMALEAELALTLKVLEATADTDPALVDVLDQPLHTLHHILSQFRACIQPQPTAGPRTRGRLHHWLYRLQEAPKKESPGCLEASVTFNLFRLLTRDLNCVASGDLCV
heavy: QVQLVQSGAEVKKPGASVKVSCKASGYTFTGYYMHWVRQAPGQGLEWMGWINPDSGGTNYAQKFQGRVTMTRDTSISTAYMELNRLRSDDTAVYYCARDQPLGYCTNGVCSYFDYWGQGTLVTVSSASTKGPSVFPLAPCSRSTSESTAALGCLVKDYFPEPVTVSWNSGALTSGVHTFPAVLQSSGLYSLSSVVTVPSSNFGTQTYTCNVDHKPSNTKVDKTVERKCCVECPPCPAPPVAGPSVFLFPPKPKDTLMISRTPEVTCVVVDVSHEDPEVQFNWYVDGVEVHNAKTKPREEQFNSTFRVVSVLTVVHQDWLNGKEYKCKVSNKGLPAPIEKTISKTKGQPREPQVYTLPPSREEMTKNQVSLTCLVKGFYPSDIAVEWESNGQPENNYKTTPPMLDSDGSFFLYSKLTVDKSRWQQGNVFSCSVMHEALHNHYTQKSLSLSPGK
B6: IFA108 (antibody, human IgG2, kappa)
heavy: QVQLVESGGGVVQPGKSLRLSCAASGFTFSSNGIHWVRQAPGKGLEWVAVIWSDGSNKFYADSVKGRFTISRDNSKNTLYLQMNSLRAEDTAVYYCARASGSGSYYNFFDYWGQGTLVTVSSASTKGPSVFPLAPCSRSTSESTAALGCLVKDYFPEPVTVSWNSGALTSGVHTFPAVLQSSGLYSLSSVVTVPSSNFGTQTYTCNVDHKPSNTKVDKTVERKCCVECPPCPAPPVAGPSVFLFPPKPKDTLMISRTPEVTCVVVDVSHEDPEVQFNWYVDGVEVHNAKTKPREEQFNSTFRVVSVLTVVHQDWLNGKEYKCKVSNKGLPAPIEKTISKTKGQPREPQVYTLPPSREEMTKNQVSLTCLVKGFYPSDIAVEWESNGQPENNYKTTPPMLDSDGSFFLYSKLTVDKSRWQQGNVFSCSVMHEALHNHYTQKSLSLSPGAEAAAKEAAAKASYNLLGFLQRSSNFQCQKLLWQLNGRLEYCLKDRMNFDIPEEIKQLQQFQKEDAALTIYEMLQNIFAIFRQDSSSTGWNETIVENLLANVYHQINHLKTVLEEKLEKEDFTRGKLMSSLHLKRYYGRILHYLKAKEYSHCAWTIVRVEILRNFYFINRLTGYLRN
light: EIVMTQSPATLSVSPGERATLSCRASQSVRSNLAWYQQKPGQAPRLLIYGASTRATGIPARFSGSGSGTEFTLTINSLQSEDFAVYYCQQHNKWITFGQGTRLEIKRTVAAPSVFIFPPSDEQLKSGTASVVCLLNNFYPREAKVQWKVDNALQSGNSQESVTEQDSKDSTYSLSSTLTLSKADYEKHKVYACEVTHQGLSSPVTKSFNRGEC
B7: IFA109 (antibody, human IgG2, kappa)
heavy: B6 heavy with C475S
light: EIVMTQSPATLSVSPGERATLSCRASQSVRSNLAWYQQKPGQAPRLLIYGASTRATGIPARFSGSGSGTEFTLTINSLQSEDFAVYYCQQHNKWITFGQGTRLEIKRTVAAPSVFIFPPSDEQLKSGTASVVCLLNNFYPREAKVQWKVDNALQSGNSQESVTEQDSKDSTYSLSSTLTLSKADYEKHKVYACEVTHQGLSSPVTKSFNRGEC
B8: IFA42 (antibody, human IgG2, kappa)
light: DIQMTQSPSSVSASVGDRVTITCRASQGIYSWLAWYQQKPGKAPNLLIYTASTLQSGVPSRFSGSGSGTDFTLTISSLQPEDFATYYCQQANIFPLTFGGGTKVEIKRTVAAPSVFIFPPSDEQLKSGTASVVCLLNNFYPREAKVQWKVDNALQSGNSQESVTEQDSKDSTYSLSSTLTLSKADYEKHKVYACEVTHQGLSSPVTKSFNRGECGGGGSGGGGSGGGGSGGGGSQDPYVKEAENLKKYFNAGHSDVADNGTLFLGILKNWKEESDRKIMQSQIVSFYFKLFKNFKDDQSIQKSVETIKEDMNVKFFNSNKKKRDDFEKLTNYSVTDLNVQRKAIHELIQVMAELSPAAKTGKRKRSQMLFRGRRASQ
heavy: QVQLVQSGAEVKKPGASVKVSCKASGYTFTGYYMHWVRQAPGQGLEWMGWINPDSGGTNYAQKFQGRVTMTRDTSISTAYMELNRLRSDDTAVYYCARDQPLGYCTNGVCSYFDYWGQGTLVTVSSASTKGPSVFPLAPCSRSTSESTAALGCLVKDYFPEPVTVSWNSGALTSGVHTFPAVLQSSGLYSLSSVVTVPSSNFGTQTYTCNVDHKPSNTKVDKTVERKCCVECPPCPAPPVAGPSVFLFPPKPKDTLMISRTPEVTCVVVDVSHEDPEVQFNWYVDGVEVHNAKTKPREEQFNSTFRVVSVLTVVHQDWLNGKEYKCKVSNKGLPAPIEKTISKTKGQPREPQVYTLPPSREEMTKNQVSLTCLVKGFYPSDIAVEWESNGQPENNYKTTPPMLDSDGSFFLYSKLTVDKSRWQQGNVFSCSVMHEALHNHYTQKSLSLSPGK
B9: 3G5 (antibody, human IgG2, kappa)
heavy: QVQLVESGGGVVQPGKSLRLSCAASGFTFSSNGIHWVRQAPGKGLEWVAVIWSDGSNKFYADSVKGRFTISRDNSKNTLYLQMNSLRAEDTAVYYCARASGSGSYYNFFDYWGQGTLVTVSSASTKGPSVFPLAPCSRSTSESTAALGCLVKDYFPEPVTVSWNSGALTSGVHTFPAVLQSSGLYSLSSVVTVPSSNFGTQTYTCNVDHKPSNTKVDKTVERKCCVECPPCPAPPVAGPSVFLFPPKPKDTLMISRTPEVTCVVVDVSHEDPEVQFNWYVDGVEVHNAKTKPREEQFNSTFRVVSVLTVVHQDWLNGKEYKCKVSNKGLPAPIEKTISKTKGQPREPQVYTLPPSREEMTKNQVSLTCLVKGFYPSDIAVEWESNGQPENNYKTTPPMLDSDGSFFLYSKLTVDKSRWQQGNVFSCSVMHEALHNHYTQKSLSLSPG
light: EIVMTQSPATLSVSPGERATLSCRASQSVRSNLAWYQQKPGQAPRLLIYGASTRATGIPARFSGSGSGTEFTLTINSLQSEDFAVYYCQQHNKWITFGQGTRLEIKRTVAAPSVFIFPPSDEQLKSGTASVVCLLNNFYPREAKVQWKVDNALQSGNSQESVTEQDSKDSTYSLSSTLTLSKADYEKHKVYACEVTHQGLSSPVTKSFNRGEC
B10: IFA126 (antibody, human IgG2, kappa)
light: DIQMTQSPSSVSASVGDRVTITCRASQGIYSWLAWYQQKPGKAPNLLIYTASTLQSGVPSRFSGSGSGTDFTLTISSLQPEDFATYYCQQANIFPLTFGGGTKVEIKRTVAAPSVFIFPPSDEQLKSGTASVVCLLNNFYPREAKVQWKVDNALQSGNSQESVTEQDSKDSTYSLSSTLTLSKADYEKHKVYACEVTHQGLSSPVTKSFNRGECGGGGSGGGGSGGGGSMSYNLLGFLQRSSNFQSQKLLWQLNGRLEYCLKDRMNFDIPEEIKQLQQFQKEDAALTIYEMLQNIFAIFRQDSSSTGWNETIVENLLANVYHQINHLKTVLEEKLEKEDFTRGKLMSSLHLKRYYGRILHYLKAKEYSHCAWTIVRVEILRNFYFINRLTGYLRN
heavy: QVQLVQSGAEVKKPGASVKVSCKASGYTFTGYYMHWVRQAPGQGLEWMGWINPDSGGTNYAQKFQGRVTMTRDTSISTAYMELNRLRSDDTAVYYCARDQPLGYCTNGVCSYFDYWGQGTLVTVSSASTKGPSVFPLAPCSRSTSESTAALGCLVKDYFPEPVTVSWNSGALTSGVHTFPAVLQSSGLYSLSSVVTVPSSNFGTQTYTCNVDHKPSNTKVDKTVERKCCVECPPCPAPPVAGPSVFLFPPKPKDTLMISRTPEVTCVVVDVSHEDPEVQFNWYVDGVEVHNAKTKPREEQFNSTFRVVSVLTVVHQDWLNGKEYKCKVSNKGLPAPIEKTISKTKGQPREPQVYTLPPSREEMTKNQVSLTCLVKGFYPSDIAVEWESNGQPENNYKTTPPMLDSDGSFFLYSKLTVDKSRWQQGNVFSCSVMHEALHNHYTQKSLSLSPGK
B11: IFA106 (antibody, human IgG2, kappa)
heavy: QVQLVESGGGVVQPGKSLRLSCAASGFTFSSNGIHWVRQAPGKGLEWVAVIWSDGSNKFYADSVKGRFTISRDNSKNTLYLQMNSLRAEDTAVYYCARASGSGSYYNFFDYWGQGTLVTVSSASTKGPSVFPLAPCSRSTSESTAALGCLVKDYFPEPVTVSWNSGALTSGVHTFPAVLQSSGLYSLSSVVTVPSSNFGTQTYTCNVDHKPSNTKVDKTVERKCCVECPPCPAPPVAGPSVFLFPPKPKDTLMISRTPEVTCVVVDVSHEDPEVQFNWYVDGVEVHNAKTKPREEQFNSTFRVVSVLTVVHQDWLNGKEYKCKVSNKGLPAPIEKTISKTKGQPREPQVYTLPPSREEMTKNQVSLTCLVKGFYPSDIAVEWESNGQPENNYKTTPPMLDSDGSFFLYSKLTVDKSRWQQGNVFSCSVMHEALHNHYTQKSLSLSPGPAPASYNLLGFLQRSSNFQCQKLLWQLNGRLEYCLKDRMNFDIPEEIKQLQQFQKEDAALTIYEMLQNIFAIFRQDSSSTGWNETIVENLLANVYHQINHLKTVLEEKLEKEDFTRGKLMSSLHLKRYYGRILHYLKAKEYSHCAWTIVRVEILRNFYFINRLTGYLRN
light: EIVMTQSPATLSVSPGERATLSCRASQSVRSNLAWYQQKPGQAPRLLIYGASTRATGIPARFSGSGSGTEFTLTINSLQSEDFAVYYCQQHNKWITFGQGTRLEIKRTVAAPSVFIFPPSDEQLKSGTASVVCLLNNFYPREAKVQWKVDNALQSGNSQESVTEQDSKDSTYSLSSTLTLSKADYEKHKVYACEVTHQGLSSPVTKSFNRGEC
B12: IFA107 (antibody, human IgG2, kappa)
heavy: B11 heavy with C467S
light: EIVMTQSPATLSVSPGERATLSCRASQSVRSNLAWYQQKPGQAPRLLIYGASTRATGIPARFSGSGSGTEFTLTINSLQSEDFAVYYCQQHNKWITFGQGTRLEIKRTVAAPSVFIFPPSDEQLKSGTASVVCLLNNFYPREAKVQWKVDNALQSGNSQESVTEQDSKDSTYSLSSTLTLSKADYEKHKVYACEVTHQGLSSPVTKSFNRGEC
B13: IFA2 (antibody, human IgG2, kappa)
light: DIQMTQSPSSVSASVGDRVTITCRASQGIYSWLAWYQQKPGKAPNLLIYTASTLQSGVPSRFSGSGSGTDFTLTISSLQPEDFATYYCQQANIFPLTFGGGTKVEIKRTVAAPSVFIFPPSDEQLKSGTASVVCLLNNFYPREAKVQWKVDNALQSGNSQESVTEQDSKDSTYSLSSTLTLSKADYEKHKVYACEVTHQGLSSPVTKSFNRGECAEAAAKEAAAKAMSYNLLGFLQRSSNFQSQKLLWQLNGRLEYCLKDRMNFDIPEEIKQLQQFQKEDAALTIYEMLQNIFAIFRQDSSSTGWNETIVENLLANVYHQINHLKTVLEEKLEKEDFTRGKLMSSLHLKRYYGRILHYLKAKEYSHCAWTIVRVEILRNFYFINRLTGYLRN
heavy: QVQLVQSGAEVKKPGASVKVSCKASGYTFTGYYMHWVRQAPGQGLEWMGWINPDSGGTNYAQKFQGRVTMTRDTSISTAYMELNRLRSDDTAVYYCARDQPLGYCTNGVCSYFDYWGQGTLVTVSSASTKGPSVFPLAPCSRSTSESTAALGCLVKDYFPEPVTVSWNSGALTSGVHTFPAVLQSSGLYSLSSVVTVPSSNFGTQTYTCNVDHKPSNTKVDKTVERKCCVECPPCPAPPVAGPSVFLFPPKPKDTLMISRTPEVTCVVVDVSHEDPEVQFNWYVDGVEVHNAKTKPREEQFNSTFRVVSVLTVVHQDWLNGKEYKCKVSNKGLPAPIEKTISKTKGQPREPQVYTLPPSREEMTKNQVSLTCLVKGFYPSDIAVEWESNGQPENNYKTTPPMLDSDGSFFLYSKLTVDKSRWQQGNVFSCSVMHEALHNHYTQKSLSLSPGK

Assays:
Experiment in all cases: cell-based or functional assay
human CD40 [1] = molecular target: T2, human CD40 (human, UniProt P25942 21-277)
T2 sequence (P25942 21-277): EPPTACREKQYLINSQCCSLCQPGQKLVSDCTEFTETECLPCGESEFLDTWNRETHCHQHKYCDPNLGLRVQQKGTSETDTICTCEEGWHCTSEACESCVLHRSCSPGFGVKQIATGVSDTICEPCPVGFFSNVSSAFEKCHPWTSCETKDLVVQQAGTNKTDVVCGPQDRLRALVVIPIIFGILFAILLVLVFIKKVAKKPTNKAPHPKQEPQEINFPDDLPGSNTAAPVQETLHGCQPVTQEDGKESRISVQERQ

[2] = molecular target: T1, human type I IFN receptor on HEK-Blue …
human CD40 [3] = molecular target: T2, human CD40; remark: listed apart in the source
[4] = molecular target: human IFNλ receptor on HEK-Blue IFN-λ cells (human)
human CD40 [5] = molecular target: T2, human CD40; remark: listed apart in the source
[6] = molecular target: T1, human type I IFN receptor on HEK-Blue …; remark: listed apart in the source
[7] = molecular target: human IFNγ receptor on HEK-Blue IFN-γ cells (human)

| Binder | CD40 EC50 (HEK-Blue CD40L NFκB-SEAP reporter cells) (human CD40 [1]) [µg/mL] | IFNβ EC50 (HEK-Blue IFN-α/β SEAP reporter cells) [2] [µg/mL] | CD40 EC50 (HEK-Blue CD40L NFκB-SEAP reporter cells) (human CD40 [5]) [µg/mL] | IFNβ EC50 (HEK-Blue IFN-α/β SEAP reporter cells) [6] [µg/mL] | also measured |
| --- | --- | --- | --- | --- | --- |
| B1 | 0.0397 | 0.0029 | – | – | – |
| B2 | 0.0658 | – | – | – | IFNε EC50 (HEK-Blue IFN-α/β SEAP reporter cells) [2]: 0.0782 µg/mL |
| B3 | 0.0426 | 0.0007 | – | – | – |
| B4 | – | – | – | – | CD40 EC50 (HEK-Blue CD40L NFκB-SEAP reporter cells) (human CD40 [3]): 0.03 to 0.08 µg/mL; CD40 EC50, mean (HEK-Blue CD40L NFκB-SEAP reporter cells) (human CD40 [3]): 0.048 µg/mL; CD40 EC50 in the experiment of FIG. 3 (HEK-Blue CD40L NFκB-SEAP reporter cells) (human CD40 [3]): 0.057 µg/mL |
| B5 | 0.0414 | – | – | – | IFNλ EC50 (HEK-Blue IFNλ reporter cells) [4]: 0.000153 µg/mL |
| B6 | – | – | 0.0373 | 0.00127 | – |
| B7 | – | – | 0.03 | 0.00045 | – |
| B8 | 0.0656 | – | – | – | IFNγ EC50 (HEK-Blue IFNγ reporter cells) [7]: 0.0154 µg/mL |
| B9 | – | – | – | – | CD40 EC50, mean (HEK-Blue CD40L NFκB-SEAP reporter cells) (human CD40 [3]): 0.0093 µg/mL |
| B10 | 0.364 | 0.00208 | – | – | – |
| B11 | – | – | 0.191 | 0.0103 | – |
| B12 | – | – | 0.142 | 0.00203 | – |
| B13 | 0.111 | 0.00014 | – | – | – |
